# Assay results published in paper PMC5726854.
# How the values were obtained:
# [1] = target: E. coli ribosomes (E. coli); test: FRAP (diffusion coefficient in living cells); E. coli cytoplasm, 30°C, 0.28 Osm; fraction bound from the effective diffusion coefficient (Equation 1); Kd per binding site from Equation 2 with 660 µM binding sites assumed
# [2] = target: Hfx. volcanii ribosomes (Haloferax volcanii (endogenous in H1895)); test: FRAP (diffusion coefficient in living cells); Hfx. volcanii cytoplasm, 30°C; fraction bound from the effective diffusion coefficient; Kd per binding site with the ribosome concentration assumed as in E. coli
# [3] = target: L. lactis ribosomes (Lactococcus lactis (endogenous in NZ9000)); test: FRAP (diffusion coefficient in living cells); L. lactis cytoplasm, 30°C; fraction bound from the effective diffusion coefficient; Kd per binding site with the ribosome concentration assumed as in E. coli
substance,measurement,setting,value
+25 GFP,Kd,[1],6.7 µM
same,fraction bound,[1],0.99
+25 GFP (expressed in Hfx. volcanii),Kd,[2],155 µM
same,fraction bound,[2],0.81
+25 GFP (expressed in L. lactis),Kd,[3],65 µM
